Results published in IntAct's records for PubMed 17170703.

B1: Caspase-8 (Homo sapiens), Q14790 (parent)
chain: MDFSRNLYDIGEQLDSEDLASLKFLSLDYIPQRKQEPIKDALMLFQRLQEKRMLEESNLSFLKELLFRINRLDLLITYLNTRKEEMERELQTPGRAQISAYRVMLYQISEEVSRSELRSFKFLLQEEISKCKLDDDMNLLDIFIEMEKRVILGEGKLDILKRVCAQINKSLLKIINDYEEFSKERSSSLEGSPDEFSNGEELCGVMTISDSPREQDSESQTLDKVYQMKSKPRGYCLIINNHNFAKAREKVPKLHSIRDRNGTHLDAGALTTTFEELHFEIKPHDDCTVEQIYEILKIYQLMDHSNMDCFICCILSHGDKGIIYGTDGQEAPIYELTSQFTGLKCPSLAGKPKVFFIQACQGDNYQKGIPVETDSEEQPYLEMDLSSPQTRYIPDEADFLLGMATVNNCVSYRNPAEGTWYIQSLCQSLRERCPRGDDILTILTEVNYEVSNKDDKKNMGKQMPQPTFTLRKKLVFPSD
B2: Androgen receptor (Homo sapiens), P10275 (parent)
chain: MEVQLGLGRVYPRPPSKTYRGAFQNLFQSVREVIQNPGPRHPEAASAAPPGASLLLLQQQQQQQQQQQQQQQQQQQQQQQETSPRQQQQQQGEDGSPQAHRRGPTGYLVLDEEQQPSQPQSALECHPERGCVPEPGAAVAASKGLPQQLPAPPDEDDSAAPSTLSLLGPTFPGLSSCSADLKDILSEASTMQLLQQQQQEAVSEGSSSGRAREASGAPTSSKDNYLGGTSTISDNAKELCKAVSVSMGLGVEALEHLSPGEQLRGDCMYAPLLGVPPAVRPTPCAPLAECKGSLLDDSAGKSTEDTAEYSPFKGGYTKGLEGESLGCSGSAAAGSSGTLELPSTLSLYKSGALDEAAAYQSRDYYNFPLALAGPPPPPPPPHPHARIKLENPLDYGSAWAAAAAQCRYGDLASLHGAGAAGPGSGSPSAAASSSWHTLFTAEEGQLYGPCGGGGGGGGGGGGGGGGGGGGGGGEAGAVAPYGYTRPPQGLAGQESDFTAPDVWYPGGMVSRVPYPSPTCVKSEMGPWMDSYSGPYGDMRLETARDHVLPIDYYFPPQKTCLICGDEASGCHYGALTCGSCKVFFKRAAEGKQKYLCASRNDCTIDKFRRKNCPSCRLRKCYEAGMTLGARKLKKLGNLKLQEEGEASSTTSPTEETTQKLTVSHIEGYECQPIFLNVLEAIEPGVVCAGHDNNQPDSFAALLSSLNELGERQLVHVVKWAKALPGFRNLHVDDQMAVIQYSWMGLMVFAMGWRSFTNVNSRMLYFAPDLVFNEYRMHKSRMYSQCVRMRHLSQEFGWLQITPQEFLCMKALLLFSIIPVDGLKNQKFFDELRMNYIKELDRIIACKRKNPTSCSRRFYQLTKLLDSVQPIARELHQFTFDLLIKSHMVSVDFPEMMAEIISVQVPKILSGKVKPIYFHTQ

Variants of: B1
Details: with andr_human AR

| effect of a mutation on the interaction | Variant |
| --- | --- |
| disrupting interaction strength | MDFSRNLYDIGEQLDSEDLASLKFLSLDYIPQRKQEPIKDALMLFQRLQEKRMLEESNLSFLKELLFRINRLDLLITYLNTRKEEMERELQTPGRAQISAYRVMLYQISEEVSRSELRSFKFLLQEEISKCKLDDDMNLLDIFIEMEKRVILGEGKLDILKRVCAQINKSLLKAANDYEEFSKERSSSLEGSPDEFSNGEELCGVMTISDSPREQDSESQTLDKVYQMKSKPRGYCLIINNHNFAKAREKVPKLHSIRDRNGTHLDAGALTTTFEELHFEIKPHDDCTVEQIYEILKIYQLMDHSNMDCFICCILSHGDKGIIYGTDGQEAPIYELTSQFTGLKCPSLAGKPKVFFIQACQGDNYQKGIPVETDSEEQPYLEMDLSSPQTRYIPDEADFLLGMATVNNCVSYRNPAEGTWYIQSLCQSLRERCPRGDDILTILTEVNYEVSNKDDKKNMGKQMPQPTFTLRKKLVFPSD [I174A;I175A] |

Variants of: B1
Details: with andr_human AR, P10275

| effect of a mutation on the interaction | Variant |
| --- | --- |
| disrupting interaction strength | MDFSRNLYDIGEQLDSEDLASLKFLSLDYIPQRKQEPIKDALMLAQRLQEKRMLEESNLSFLKELLFRINRLDLLITYLNTRKEEMERELQTPGRAQISAYRVMLYQISEEVSRSELRSFKFLLQEEISKCKLDDDMNLLDIFIEMEKRVILGEGKLDILKRVCAQINKSLLKIINDYEEFSKERSSSLEGSPDEFSNGEELCGVMTISDSPREQDSESQTLDKVYQMKSKPRGYCLIINNHNFAKAREKVPKLHSIRDRNGTHLDAGALTTTFEELHFEIKPHDDCTVEQIYEILKIYQLMDHSNMDCFICCILSHGDKGIIYGTDGQEAPIYELTSQFTGLKCPSLAGKPKVFFIQACQGDNYQKGIPVETDSEEQPYLEMDLSSPQTRYIPDEADFLLGMATVNNCVSYRNPAEGTWYIQSLCQSLRERCPRGDDILTILTEVNYEVSNKDDKKNMGKQMPQPTFTLRKKLVFPSD [F45A] |

Variants of: B2
Details: with casp8_human CASP8, Q14790

| effect of a mutation on the interaction | Variant |
| --- | --- |
| disrupting interaction | L26A;F27A |
